Here are results for one molecule from PMC6097396, “Crystal structures of a llama VHH antibody BCD090-M2 targeting human ErbB3 receptor” (F1000Research, 2018).

The Kd is the equilibrium constant for the complex coming apart. Low values mean a tighter complex, high ones a looser complex.

In the assay the target is T1, extracellular domain (residues 21-643) of the human ErbB3 receptor (Homo sapiens, UniProt P21860).
T1 construct: ErbB3 receptor (HER3), human, extracellular domain, residues 21-643; The ErbB3 gene fragment is followed by a hexahistidine tag and a FLAG-tag; also called HER3; extracellular domain of ErbB3; source: CHO-T-HC cells, transfected (pEE vector), purified from culture fluid (HisTrap HP, Superdex 200 SEC)
T1 sequence (P21860 21-643): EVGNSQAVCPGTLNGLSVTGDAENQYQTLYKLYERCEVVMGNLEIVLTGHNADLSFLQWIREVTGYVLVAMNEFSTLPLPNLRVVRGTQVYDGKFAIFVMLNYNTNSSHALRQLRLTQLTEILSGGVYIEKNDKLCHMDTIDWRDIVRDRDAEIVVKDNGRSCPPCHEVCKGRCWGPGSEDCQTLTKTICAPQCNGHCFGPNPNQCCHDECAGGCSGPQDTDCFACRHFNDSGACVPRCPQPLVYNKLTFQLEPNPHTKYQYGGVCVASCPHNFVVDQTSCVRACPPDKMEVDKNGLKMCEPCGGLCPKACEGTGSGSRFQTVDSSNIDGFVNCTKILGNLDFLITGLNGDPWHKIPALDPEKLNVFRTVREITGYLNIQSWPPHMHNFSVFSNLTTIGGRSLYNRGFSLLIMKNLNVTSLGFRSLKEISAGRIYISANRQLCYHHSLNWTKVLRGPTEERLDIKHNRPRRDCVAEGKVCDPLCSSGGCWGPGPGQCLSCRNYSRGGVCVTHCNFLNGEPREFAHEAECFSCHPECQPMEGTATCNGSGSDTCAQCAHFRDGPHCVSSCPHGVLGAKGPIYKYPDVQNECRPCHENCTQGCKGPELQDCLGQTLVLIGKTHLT
The assay is described as follows: SPR; Biacore T200; ErbB3 extracellular domain immobilised on CM5 chip by amine coupling; BCD090-M2 injected at 1 uM down to 0.49 nM in 10 mM HEPES pH 7.4, 0.15 M NaCl, 50 ug/ml BSA; 37°C; equilibrium fit of response against concentration; mean of three experiments. The conditions noted are these: both partners purified. For orientation: SPR reads the build-up and loss of mass on a sensor chip optically.

B1: llama VHH antibody BCD090-M2 (VHH)
VHH: QVQLVQSGGGLVQAGGSLRLSCAFSGRTFSMYTMGWFRQAPGKEREFVAANRGRGLSPDIADSVNGRFTISRDNAKNTLYLQMDSLKPEDTAVYYCAADLQYGSSWPQRSSAEYDYWGQGTTVTVSS
notes: 128 residues in the PDB entries; a single additional N-terminal glycine is left from the TEV recognition site; Selected by phage display from immunized llamas; also called VHH fragment of the antibody BCD090-M2; not shown: His6, N-terminal, cleaved; SUMO, N-terminal, cleaved
In the case of B1, the Kd worked out at 15 ± 1 nM.
